Data set [1] addresses mutant p53 (bacterially purified, commercial), P04637.
For data set [2], the target named is wild type p53 (bacterially purified, commercial), P04637.

This note sets out measurements from patent publication US20260055150.

B1: GRAIL C-terminal fragment (amino acids 229-428), recombinant (protein)
chain: YSARRLRNARAQSRKQRQLKADAKKAIGRLQLRTLKQGDKEIGPDGDSCAVCIELYKPNDLVRILTCNHIFHKTCVDPWLLEHRTCPMCKCDILKALGIEVDVEDGSVSLQVPVSNEISNSASSHEEDNRSETASSGYASVQGTDEPPLEEHVQSTNESLQLVNHEANSVAVDVIPHVDNPTFEEDETPNQETAVREIKS
Take B1: the “in vitro ubiquitination assay (UBE1, UBCH5, Myc-tagged ubiquitin), immunoblot” value in data set [1] and in data set [2] was “a C-terminal RF containing GRAIL fragment is efficient in polyubiquitinating mutant p53 as compared to wild type protein” throughout.
